18 variants from the RNAGym collection of RNA variant scans (doi:10.1021/acssynbio.7b00057) can be followed below.

The chains are these.
B1: Pistol ribozyme (parent)
chain: GGGUCGUUGUUCCAUAAUCGCGUGGAUAUGGCACGCAAGUUUCUACCGGGCACCGUAAAUGUCCGACUGGAGCCGUUCGGGCGGCUAUAAACAGACCUCAGGCCCGAAGCGUGGCGGCACCUGCCGCCGGUGGUAAAAAAGAUCGGAAGAGCACACGUCU

The variants in this data set derive from B1. Put plainly: aptazyme ON/OFF ratio, guanine; higher = stronger switching; co-transcriptional cleavage with and without guanine.
As to GGGUCGGCACCGGAUAAUCGCGUGGAUAUGGCACGCAAGUUUCUACCGGGCACCGUAAAUGUCCGACUGGAGCCGUUCGGGCGGCUAUAAACAGACCUCAGGCCCGAAGCGUGGCGGCACCUGCCGCCGGUGGUAAAAAAGAUCGGAAGAGCACACGUCU [U7G U8C G9A U10C U11C C12G C13G], the “aptazyme ON/OFF ratio” value came to 1.05.
In the case of GGGUCGGCACCGUAUAAUCGCGUGGAUAUGGCACGCAAGUUUCUACCGGGCACCGUAAAUGUCCGACUGGAGCCGUUCGGGCGGCUAUAAACAGACCUCAGGCCCGAAGCGUGGCGGCACCUGCCGCCGGUGGUAAAAAAGAUCGGAAGAGCACACGUCU [U7G U8C G9A U10C U11C C12G C13U] it was 1.09.
The result for GGGUCGGCACCGAAUAAUCGCGUGGAUAUGGCACGCAAGUUUCUACCGGGCACCGUAAAUGUCCGACUGGAGCCGUUCGGGCGGCUAUAAACAGACCUCAGGCCCGAAGCGUGGCGGCACCUGCCGCCGGUGGUAAAAAAGAUCGGAAGAGCACACGUCU [U7G U8C G9A U10C U11C C12G C13A] reads 1.15; that for GGGUCGGCACUCUAUAAUCGCGUGGAUAUGGCACGCAAGUUUCUACCGGGCACCGUAAAUGUCCGACUGGAGCCGUUCGGGCGGCUAUAAACAGACCUCAGGCCCGAAGCGUGGCGGCACCUGCCGCCGGUGGUAAAAAAGAUCGGAAGAGCACACGUCU [U7G U8C G9A U10C C13U], 1.58; that for GGGUCGGCACACCAUAAUCGCGUGGAUAUGGCACGCAAGUUUCUACCGGGCACCGUAAAUGUCCGACUGGAGCCGUUCGGGCGGCUAUAAACAGACCUCAGGCCCGAAGCGUGGCGGCACCUGCCGCCGGUGGUAAAAAAGAUCGGAAGAGCACACGUCU [U7G U8C G9A U10C U11A], 3.52.
In the case of GGGUCGGCACCCCAUAAUCGCGUGGAUAUGGCACGCAAGUUUCUACCGGGCACCGUAAAUGUCCGACUGGAGCCGUUCGGGCGGCUAUAAACAGACCUCAGGCCCGAAGCGUGGCGGCACCUGCCGCCGGUGGUAAAAAAGAUCGGAAGAGCACACGUCU [U7G U8C G9A U10C U11C] it was 1.16.
Take GGGUCGGCACGCCAUAAUCGCGUGGAUAUGGCACGCAAGUUUCUACCGGGCACCGUAAAUGUCCGACUGGAGCCGUUCGGGCGGCUAUAAACAGACCUCAGGCCCGAAGCGUGGCGGCACCUGCCGCCGGUGGUAAAAAAGAUCGGAAGAGCACACGUCU [U7G U8C G9A U10C U11G]: the “aptazyme ON/OFF ratio” value was 1.5.
Consider GGGUCGGCACACGAUAAUCGCGUGGAUAUGGCACGCAAGUUUCUACCGGGCACCGUAAAUGUCCGACUGGAGCCGUUCGGGCGGCUAUAAACAGACCUCAGGCCCGAAGCGUGGCGGCACCUGCCGCCGGUGGUAAAAAAGAUCGGAAGAGCACACGUCU [U7G U8C G9A U10C U11A C13G], for which the “aptazyme ON/OFF ratio” value was found to be 1.07.
With GGGUCGGCACACUAUAAUCGCGUGGAUAUGGCACGCAAGUUUCUACCGGGCACCGUAAAUGUCCGACUGGAGCCGUUCGGGCGGCUAUAAACAGACCUCAGGCCCGAAGCGUGGCGGCACCUGCCGCCGGUGGUAAAAAAGAUCGGAAGAGCACACGUCU [U7G U8C G9A U10C U11A C13U], the “aptazyme ON/OFF ratio” value was 1.28.
Take GGGUCGGCACACAAUAAUCGCGUGGAUAUGGCACGCAAGUUUCUACCGGGCACCGUAAAUGUCCGACUGGAGCCGUUCGGGCGGCUAUAAACAGACCUCAGGCCCGAAGCGUGGCGGCACCUGCCGCCGGUGGUAAAAAAGAUCGGAAGAGCACACGUCU [U7G U8C G9A U10C U11A C13A]: the “aptazyme ON/OFF ratio” value worked out at 1.18.
In the case of GGGUCGGCACAGCAUAAUCGCGUGGAUAUGGCACGCAAGUUUCUACCGGGCACCGUAAAUGUCCGACUGGAGCCGUUCGGGCGGCUAUAAACAGACCUCAGGCCCGAAGCGUGGCGGCACCUGCCGCCGGUGGUAAAAAAGAUCGGAAGAGCACACGUCU [U7G U8C G9A U10C U11A C12G] it was 1.18.
As for GGGUCGGCACAUCAUAAUCGCGUGGAUAUGGCACGCAAGUUUCUACCGGGCACCGUAAAUGUCCGACUGGAGCCGUUCGGGCGGCUAUAAACAGACCUCAGGCCCGAAGCGUGGCGGCACCUGCCGCCGGUGGUAAAAAAGAUCGGAAGAGCACACGUCU [U7G U8C G9A U10C U11A C12U], the “aptazyme ON/OFF ratio” value came out at 1.18.
Turning to GGGUCGGCACAACAUAAUCGCGUGGAUAUGGCACGCAAGUUUCUACCGGGCACCGUAAAUGUCCGACUGGAGCCGUUCGGGCGGCUAUAAACAGACCUCAGGCCCGAAGCGUGGCGGCACCUGCCGCCGGUGGUAAAAAAGAUCGGAAGAGCACACGUCU [U7G U8C G9A U10C U11A C12A], the “aptazyme ON/OFF ratio” value amounted to 1.33.
Turning to GGGUCGGCACGACAUAAUCGCGUGGAUAUGGCACGCAAGUUUCUACCGGGCACCGUAAAUGUCCGACUGGAGCCGUUCGGGCGGCUAUAAACAGACCUCAGGCCCGAAGCGUGGCGGCACCUGCCGCCGGUGGUAAAAAAGAUCGGAAGAGCACACGUCU [U7G U8C G9A U10C U11G C12A], the “aptazyme ON/OFF ratio” value was found to be 1.07.
In the case of GGGUCGGCACGAAAUAAUCGCGUGGAUAUGGCACGCAAGUUUCUACCGGGCACCGUAAAUGUCCGACUGGAGCCGUUCGGGCGGCUAUAAACAGACCUCAGGCCCGAAGCGUGGCGGCACCUGCCGCCGGUGGUAAAAAAGAUCGGAAGAGCACACGUCU [U7G U8C G9A U10C U11G C12A C13A] it was 1.11; in that of GGGUCGGCACAGUAUAAUCGCGUGGAUAUGGCACGCAAGUUUCUACCGGGCACCGUAAAUGUCCGACUGGAGCCGUUCGGGCGGCUAUAAACAGACCUCAGGCCCGAAGCGUGGCGGCACCUGCCGCCGGUGGUAAAAAAGAUCGGAAGAGCACACGUCU [U7G U8C G9A U10C U11A C12G C13U], 1.33; in that of GGGUCGGCACAGGAUAAUCGCGUGGAUAUGGCACGCAAGUUUCUACCGGGCACCGUAAAUGUCCGACUGGAGCCGUUCGGGCGGCUAUAAACAGACCUCAGGCCCGAAGCGUGGCGGCACCUGCCGCCGGUGGUAAAAAAGAUCGGAAGAGCACACGUCU [U7G U8C G9A U10C U11A C12G C13G], 1.21.
Consider GGGUCGGCACAGAAUAAUCGCGUGGAUAUGGCACGCAAGUUUCUACCGGGCACCGUAAAUGUCCGACUGGAGCCGUUCGGGCGGCUAUAAACAGACCUCAGGCCCGAAGCGUGGCGGCACCUGCCGCCGGUGGUAAAAAAGAUCGGAAGAGCACACGUCU [U7G U8C G9A U10C U11A C12G C13A], for which the “aptazyme ON/OFF ratio” value worked out at 1.06.
